Legend:
[1] = biological target: dazp2_human DAZAP2 (UniProt Q15038)
[2] = biological target: pihd2_human PIH1D2 (UniProt Q8WWB5)
[3] = biological target: RUNX1, Q01196-8
[4] = biological target: hspb8_human HSPB8 (UniProt Q9UJY1)
[5] = biological target: ptn21_human PTPN21 (UniProt Q16825)
[6] = biological target: prdm6_human PRDM6 (UniProt Q9NQX0)
[7] = biological target: tri27_human TRIM27 (UniProt P14373)
[8] = biological target: leng8_human LENG8 (UniProt Q96PV6)
[9] = biological target: magd1_human MAGED1 (UniProt Q9Y5V3)
[10] = biological target: vp37b_human VPS37B (UniProt Q9H9H4)
[11] = biological target: mdfi_human MDFI (UniProt Q99750)
[12] = biological target: fx4l1_human FOXD4L1 (UniProt Q9NU39)
[13] = biological target: pa2gx_human PLA2G10 (UniProt O15496)
Sequence of pa2gx_human PLA2G10 (O15496 whole entry): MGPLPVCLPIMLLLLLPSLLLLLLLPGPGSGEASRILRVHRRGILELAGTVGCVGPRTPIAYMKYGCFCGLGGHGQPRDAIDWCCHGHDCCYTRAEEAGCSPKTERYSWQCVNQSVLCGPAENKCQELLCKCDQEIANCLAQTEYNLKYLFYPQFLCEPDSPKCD

[14] = biological target: prr34_human PRR34 (UniProt Q9NV39)
Sequence of prr34_human PRR34 (Q9NV39 whole entry): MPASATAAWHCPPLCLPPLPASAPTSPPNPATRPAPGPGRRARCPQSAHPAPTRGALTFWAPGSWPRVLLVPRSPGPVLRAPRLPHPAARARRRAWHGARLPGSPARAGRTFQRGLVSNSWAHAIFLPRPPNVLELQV

[15] = biological target: ctds1_human CTDSP1 (UniProt Q9GZU7)
Sequence of ctds1_human CTDSP1 (Q9GZU7 whole entry): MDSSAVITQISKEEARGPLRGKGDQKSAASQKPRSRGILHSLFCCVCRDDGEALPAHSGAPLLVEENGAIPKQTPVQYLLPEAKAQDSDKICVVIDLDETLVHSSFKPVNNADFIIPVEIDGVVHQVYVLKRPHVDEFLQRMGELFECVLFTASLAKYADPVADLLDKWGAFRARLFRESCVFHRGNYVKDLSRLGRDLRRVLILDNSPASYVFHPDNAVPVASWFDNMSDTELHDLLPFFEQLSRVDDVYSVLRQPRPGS

[16] = biological target: egr4_human EGR4 (UniProt Q05215)
Sequence of egr4_human EGR4 (Q05215 whole entry): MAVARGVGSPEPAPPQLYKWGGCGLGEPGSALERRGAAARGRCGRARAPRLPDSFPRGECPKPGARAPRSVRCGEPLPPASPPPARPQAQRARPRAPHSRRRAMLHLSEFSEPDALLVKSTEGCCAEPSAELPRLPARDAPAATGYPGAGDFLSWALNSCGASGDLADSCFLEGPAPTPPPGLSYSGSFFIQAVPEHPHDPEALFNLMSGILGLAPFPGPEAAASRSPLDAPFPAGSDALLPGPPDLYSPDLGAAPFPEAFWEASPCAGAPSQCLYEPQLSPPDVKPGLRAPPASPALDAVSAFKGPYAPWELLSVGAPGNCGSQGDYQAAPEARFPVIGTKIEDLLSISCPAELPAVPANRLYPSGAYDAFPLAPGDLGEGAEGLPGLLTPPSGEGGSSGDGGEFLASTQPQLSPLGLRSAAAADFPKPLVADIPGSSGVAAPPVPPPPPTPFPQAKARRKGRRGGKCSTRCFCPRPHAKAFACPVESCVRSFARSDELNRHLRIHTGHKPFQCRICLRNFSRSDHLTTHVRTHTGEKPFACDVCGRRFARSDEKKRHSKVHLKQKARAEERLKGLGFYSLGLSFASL

[17] = biological target: SIAH1, Q8IUQ4-2
Sequence of SIAH1, Q8IUQ4-2 (Q8IUQ4 other isoform, or with tags, fused parts or gaps): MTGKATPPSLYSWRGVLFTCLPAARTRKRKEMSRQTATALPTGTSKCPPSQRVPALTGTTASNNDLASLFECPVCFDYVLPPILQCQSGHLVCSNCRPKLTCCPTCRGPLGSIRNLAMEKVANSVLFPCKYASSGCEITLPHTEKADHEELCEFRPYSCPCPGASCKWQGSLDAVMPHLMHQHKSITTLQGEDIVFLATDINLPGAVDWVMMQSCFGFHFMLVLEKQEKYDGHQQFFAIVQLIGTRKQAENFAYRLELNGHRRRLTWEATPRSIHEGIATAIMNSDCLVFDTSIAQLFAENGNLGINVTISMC

[18] = biological target: EYA2, O00167-2
[19] = biological target: hspb7_human HSPB7 (UniProt Q9UBY9)
Sequence of hspb7_human HSPB7 (Q9UBY9 whole entry): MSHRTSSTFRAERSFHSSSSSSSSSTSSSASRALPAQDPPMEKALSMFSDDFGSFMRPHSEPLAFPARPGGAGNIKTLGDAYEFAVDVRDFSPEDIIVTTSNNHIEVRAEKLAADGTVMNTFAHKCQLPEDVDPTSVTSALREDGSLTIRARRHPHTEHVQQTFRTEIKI

[20] = biological target: arrd3_human ARRDC3 (UniProt Q96B67)
Sequence of arrd3_human ARRDC3 (Q96B67 whole entry): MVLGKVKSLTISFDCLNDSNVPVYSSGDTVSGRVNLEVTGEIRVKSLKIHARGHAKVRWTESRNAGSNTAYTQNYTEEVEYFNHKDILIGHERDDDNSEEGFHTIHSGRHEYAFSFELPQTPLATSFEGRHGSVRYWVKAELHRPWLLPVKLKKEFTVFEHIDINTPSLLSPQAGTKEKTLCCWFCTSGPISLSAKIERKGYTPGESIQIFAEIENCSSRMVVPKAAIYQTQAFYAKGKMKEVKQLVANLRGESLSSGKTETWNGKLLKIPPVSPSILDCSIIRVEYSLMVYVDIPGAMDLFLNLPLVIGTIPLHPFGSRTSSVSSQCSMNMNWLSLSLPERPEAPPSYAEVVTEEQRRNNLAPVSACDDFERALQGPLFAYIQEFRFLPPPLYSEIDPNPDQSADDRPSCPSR

[21] = biological target: dtx3_human DTX3 (UniProt Q8N9I9)
[22] = biological target: noto_human NOTO (UniProt A8MTQ0)
[23] = biological target: NR1H3, Q13133-3
Sequence of NR1H3, Q13133-3 (Q13133 46-447): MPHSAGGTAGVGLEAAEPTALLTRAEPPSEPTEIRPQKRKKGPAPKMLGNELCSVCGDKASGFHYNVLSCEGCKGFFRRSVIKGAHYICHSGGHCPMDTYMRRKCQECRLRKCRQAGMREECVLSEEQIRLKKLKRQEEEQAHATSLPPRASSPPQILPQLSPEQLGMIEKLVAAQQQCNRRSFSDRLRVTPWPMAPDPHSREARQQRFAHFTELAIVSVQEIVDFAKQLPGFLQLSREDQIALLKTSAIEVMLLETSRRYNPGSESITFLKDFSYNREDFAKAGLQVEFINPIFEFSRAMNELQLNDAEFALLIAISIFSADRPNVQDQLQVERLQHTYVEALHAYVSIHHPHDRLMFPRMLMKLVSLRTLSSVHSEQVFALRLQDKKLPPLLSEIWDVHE

[24] = biological target: rm38_human MRPL38 (UniProt Q96DV4)
[25] = biological target: pdli7_human PDLIM7 (UniProt Q9NR12)
Sequence of pdli7_human PDLIM7 (Q9NR12 whole entry): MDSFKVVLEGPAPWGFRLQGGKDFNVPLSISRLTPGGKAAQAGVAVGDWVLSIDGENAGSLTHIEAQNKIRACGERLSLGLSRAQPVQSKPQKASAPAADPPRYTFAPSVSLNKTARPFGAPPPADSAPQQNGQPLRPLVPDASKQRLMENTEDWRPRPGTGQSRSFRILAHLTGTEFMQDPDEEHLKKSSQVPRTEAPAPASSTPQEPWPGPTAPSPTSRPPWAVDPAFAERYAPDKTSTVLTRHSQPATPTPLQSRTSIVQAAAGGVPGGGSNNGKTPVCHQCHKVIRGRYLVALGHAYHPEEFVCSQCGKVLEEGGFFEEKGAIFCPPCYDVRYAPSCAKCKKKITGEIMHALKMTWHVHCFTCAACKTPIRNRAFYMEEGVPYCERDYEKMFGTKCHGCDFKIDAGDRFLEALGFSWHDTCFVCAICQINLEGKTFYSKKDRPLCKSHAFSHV

[26] = biological target: wbp2_human WBP2 (UniProt Q969T9)
[27] = biological target: trib3_human TRIB3 (UniProt Q96RU7)
[28] = biological target: GLIS3, Q8NEA6-2
Sequence of GLIS3, Q8NEA6-2 (Q8NEA6 other isoform, or with tags, fused parts or gaps): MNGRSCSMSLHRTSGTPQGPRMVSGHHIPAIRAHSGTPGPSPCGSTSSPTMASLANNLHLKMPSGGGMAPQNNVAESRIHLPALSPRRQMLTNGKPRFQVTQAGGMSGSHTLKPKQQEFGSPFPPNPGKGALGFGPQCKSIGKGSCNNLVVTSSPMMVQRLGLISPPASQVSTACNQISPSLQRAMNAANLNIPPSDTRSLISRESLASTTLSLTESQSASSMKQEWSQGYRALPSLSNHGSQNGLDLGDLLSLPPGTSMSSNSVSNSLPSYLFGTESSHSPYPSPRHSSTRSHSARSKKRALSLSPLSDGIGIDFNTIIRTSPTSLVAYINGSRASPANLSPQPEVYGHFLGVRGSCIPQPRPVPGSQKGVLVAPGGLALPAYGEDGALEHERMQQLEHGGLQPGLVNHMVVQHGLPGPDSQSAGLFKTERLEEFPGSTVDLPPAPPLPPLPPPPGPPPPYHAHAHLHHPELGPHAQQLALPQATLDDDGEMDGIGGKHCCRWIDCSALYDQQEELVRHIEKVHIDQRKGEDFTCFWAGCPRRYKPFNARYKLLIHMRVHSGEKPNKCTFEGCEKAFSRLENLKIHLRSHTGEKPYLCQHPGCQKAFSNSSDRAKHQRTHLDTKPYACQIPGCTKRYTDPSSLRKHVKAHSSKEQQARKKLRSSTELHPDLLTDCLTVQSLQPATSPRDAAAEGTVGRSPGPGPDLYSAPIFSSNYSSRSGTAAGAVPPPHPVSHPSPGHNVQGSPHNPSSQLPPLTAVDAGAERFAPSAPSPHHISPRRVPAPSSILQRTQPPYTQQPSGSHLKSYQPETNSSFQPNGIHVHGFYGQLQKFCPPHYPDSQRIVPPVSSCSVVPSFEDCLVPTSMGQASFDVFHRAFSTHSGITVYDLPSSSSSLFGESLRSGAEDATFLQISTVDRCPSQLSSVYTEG

[29] = biological target: tm174_human TMEM174 (UniProt Q8WUU8)
[30] = biological target: cytm1_human CYSTM1 (UniProt Q9H1C7)
Sequence of cytm1_human CYSTM1 (Q9H1C7 whole entry): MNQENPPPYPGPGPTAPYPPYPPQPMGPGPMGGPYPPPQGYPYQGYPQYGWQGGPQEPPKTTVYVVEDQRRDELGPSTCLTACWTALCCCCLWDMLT

[31] = biological target: tnip1_human TNIP1 (UniProt Q15025)
[32] = biological target: zn639_human ZNF639 (UniProt Q9UID6)
[33] = biological target: kank2_human KANK2 (UniProt Q63ZY3)
[34] = biological target: car10_human CARD10 (UniProt Q9BWT7)
[35] = biological target: zbt14_human ZBTB14 (UniProt O43829)
[36] = biological target: pick1_human PICK1 (UniProt Q9NRD5)
[37] = biological target: thap1_human THAP1 (UniProt Q9NVV9)
[38] = biological target: coha1_human COL17A1 (UniProt Q9UMD9)
[39] = biological target: cntrb_human CNTROB (UniProt Q8N137)
[40] = biological target: xrcc4_human XRCC4 (UniProt Q13426)
[41] = biological target: CCDC14, Q49A88-3
[42] = biological target: pnma5_human PNMA5 (UniProt Q96PV4)
[43] = biological target: sp4_human SP4 (UniProt Q02446)
[44] = biological target: ppip1_human PSTPIP1 (UniProt O43586)
[45] = biological target: msd4_human MSANTD4 (UniProt Q8NCY6)
[46] = biological target: crcm_human MCC (UniProt P23508)
[47] = biological target: trbp2_human TARBP2 (UniProt Q15633)
[48] = biological target: tri37_human TRIM37 (UniProt O94972)
[49] = biological target: CAMK2B, Q13554-3
[50] = biological target: tbcd1_human TBC1D1 (UniProt Q86TI0)
[51] = biological target: klh12_human KLHL12 (UniProt Q53G59)
[52] = biological target: TMEM239, Q8WW34-2
[53] = biological target: IKZF1, Q13422-7
[54] = biological target: syph_human SYP (UniProt P08247)
[55] = biological target: fads6_human FADS6 (UniProt Q8N9I5)
[56] = biological target: rprm_human RPRM (UniProt Q9NS64)
[57] = biological target: mgst2_human MGST2 (UniProt Q99735)
[58] = biological target: snx2_human SNX2 (UniProt O60749)
[59] = biological target: sft2a_human SFT2D1 (UniProt Q8WV19)
[60] = biological target: sng3_human SYNGR3 (UniProt O43761)
[61] = biological target: SYNGR1, O43759-2
[62] = biological target: CCDC43 (UniProt Q86WV7)
[63] = biological target: flowr_human CACFD1 (UniProt Q9UGQ2)

Sequence of dazp2_human DAZAP2 (Q15038 whole entry): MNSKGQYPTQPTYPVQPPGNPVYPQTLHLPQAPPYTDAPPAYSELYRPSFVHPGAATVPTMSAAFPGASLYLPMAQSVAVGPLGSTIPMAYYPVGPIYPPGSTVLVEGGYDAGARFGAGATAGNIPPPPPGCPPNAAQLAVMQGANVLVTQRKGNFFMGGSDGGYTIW
Sequence of leng8_human LENG8 (Q96PV6 whole entry): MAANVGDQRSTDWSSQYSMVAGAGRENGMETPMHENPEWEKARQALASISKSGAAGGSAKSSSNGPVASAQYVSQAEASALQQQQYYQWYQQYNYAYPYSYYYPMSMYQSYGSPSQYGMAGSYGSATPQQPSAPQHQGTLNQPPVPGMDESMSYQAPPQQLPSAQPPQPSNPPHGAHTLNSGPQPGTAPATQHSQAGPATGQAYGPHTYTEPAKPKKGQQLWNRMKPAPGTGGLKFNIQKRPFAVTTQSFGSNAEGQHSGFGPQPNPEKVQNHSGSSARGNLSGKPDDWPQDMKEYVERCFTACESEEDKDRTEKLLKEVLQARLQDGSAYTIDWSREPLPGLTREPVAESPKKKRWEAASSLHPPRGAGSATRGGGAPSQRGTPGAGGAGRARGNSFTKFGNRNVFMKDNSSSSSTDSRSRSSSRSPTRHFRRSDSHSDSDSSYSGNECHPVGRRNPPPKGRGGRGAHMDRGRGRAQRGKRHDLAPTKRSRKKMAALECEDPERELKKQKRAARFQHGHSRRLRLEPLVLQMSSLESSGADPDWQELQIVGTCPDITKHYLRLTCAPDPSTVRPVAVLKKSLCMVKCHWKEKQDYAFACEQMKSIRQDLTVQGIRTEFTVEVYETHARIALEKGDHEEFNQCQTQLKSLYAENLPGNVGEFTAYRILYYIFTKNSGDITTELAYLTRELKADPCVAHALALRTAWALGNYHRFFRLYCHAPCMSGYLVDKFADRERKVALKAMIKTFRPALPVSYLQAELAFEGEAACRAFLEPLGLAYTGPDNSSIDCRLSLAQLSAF

“BAG family molecular chaperone regulator 3 (Homo sapiens), O95817 R258W” was tested, and the “effect of a mutation on the interaction” value [1] was “with no effect”, the “effect of a mutation on the interaction” value [2] was “with no effect” and the “effect of a mutation on the interaction” value [3] was “with no effect”. For the same substance, the “effect of a mutation on the interaction” value [4] was “with no effect”, the “effect of a mutation on the interaction” value [5] was “with no effect” and the “effect of a mutation on the interaction” value [6] was “with no effect”. For the same substance, the “effect of a mutation on the interaction” value [7] was “with no effect”, the “effect of a mutation on the interaction” value [8] was “with no effect” and the “effect of a mutation on the interaction” value [9] was “with no effect”. The “effect of a mutation on the interaction” value [10] was “with no effect”, the “effect of a mutation on the interaction” value [11] was “with no effect” and the “effect of a mutation on the interaction” value [12] was “with no effect”. For the same substance, the “effect of a mutation on the interaction” value [13] was “with no effect”, the “effect of a mutation on the interaction” value [14] was “with no effect” and the “effect of a mutation on the interaction” value [15] was “with no effect”. The “effect of a mutation on the interaction” value [16] was “with no effect”, the “effect of a mutation on the interaction” value [17] was “with no effect” and the “effect of a mutation on the interaction” value [18] was “with no effect”. For the same substance, the “effect of a mutation on the interaction” value [19] was “with no effect”, the “effect of a mutation on the interaction” value [20] was “with no effect” and the “effect of a mutation on the interaction” value [21] was “with no effect”. For the same substance, the “effect of a mutation on the interaction” value [22] was “with no effect”, the “effect of a mutation on the interaction” value [23] was “with no effect” and the “effect of a mutation on the interaction” value [24] was “disrupting interaction strength”. For the same substance, the “effect of a mutation on the interaction” value [25] was “with no effect”, the “effect of a mutation on the interaction” value [26] was “with no effect” and the “effect of a mutation on the interaction” value [27] was “with no effect”. For the same substance, the “effect of a mutation on the interaction” value [28] was “with no effect” and the “effect of a mutation on the interaction” value [29] was “with no effect”.

For “BAG family molecular chaperone regulator 3 (Homo sapiens), O95817 R218W”, the “effect of a mutation on the interaction” value [1] was “with no effect”, the “effect of a mutation on the interaction” value [2] was “with no effect” and the “effect of a mutation on the interaction” value [4] was “with no effect”. For the same substance, the “effect of a mutation on the interaction” value [5] was “with no effect”, the “effect of a mutation on the interaction” value [7] was “with no effect” and the “effect of a mutation on the interaction” value [8] was “with no effect”. The “effect of a mutation on the interaction” value [9] was “with no effect”, the “effect of a mutation on the interaction” value [10] was “with no effect” and the “effect of a mutation on the interaction” value [11] was “with no effect”. For the same substance, the “effect of a mutation on the interaction” value [12] was “with no effect”, the “effect of a mutation on the interaction” value [13] was “with no effect” and the “effect of a mutation on the interaction” value [14] was “with no effect”. The “effect of a mutation on the interaction” value [15] was “with no effect”, the “effect of a mutation on the interaction” value [16] was “with no effect” and the “effect of a mutation on the interaction” value [17] was “with no effect”. The “effect of a mutation on the interaction” value [18] was “with no effect”, the “effect of a mutation on the interaction” value [19] was “with no effect” and the “effect of a mutation on the interaction” value [20] was “with no effect”. For the same substance, the “effect of a mutation on the interaction” value [21] was “with no effect”, the “effect of a mutation on the interaction” value [22] was “with no effect” and the “effect of a mutation on the interaction” value [23] was “with no effect”. The “effect of a mutation on the interaction” value [25] was “with no effect”, the “effect of a mutation on the interaction” value [26] was “with no effect” and the “effect of a mutation on the interaction” value [27] was “with no effect”. The “effect of a mutation on the interaction” value [30] was “with no effect”, the “effect of a mutation on the interaction” value [28] was “with no effect” and the “effect of a mutation on the interaction” value [29] was “with no effect”.

In the case of “BAG family molecular chaperone regulator 3 (Homo sapiens), O95817 L462P”, the “effect of a mutation on the interaction” value [1] is reported as “with no effect”, the “effect of a mutation on the interaction” value [2] is reported as “with no effect” and the “effect of a mutation on the interaction” value [3] is reported as “with no effect”. The “effect of a mutation on the interaction” value [4] was “with no effect”, the “effect of a mutation on the interaction” value [5] was “with no effect” and the “effect of a mutation on the interaction” value [6] was “with no effect”. For the same substance, the “effect of a mutation on the interaction” value [7] was “with no effect”, the “effect of a mutation on the interaction” value [8] was “disrupting interaction strength” and the “effect of a mutation on the interaction” value [9] was “with no effect”. For the same substance, the “effect of a mutation on the interaction” value [10] was “with no effect”, the “effect of a mutation on the interaction” value [11] was “with no effect” and the “effect of a mutation on the interaction” value [12] was “with no effect”. The “effect of a mutation on the interaction” value [13] was “with no effect”, the “effect of a mutation on the interaction” value [14] was “with no effect” and the “effect of a mutation on the interaction” value [15] was “disrupting interaction strength”. The “effect of a mutation on the interaction” value [16] was “with no effect”, the “effect of a mutation on the interaction” value [17] was “disrupting interaction strength” and the “effect of a mutation on the interaction” value [18] was “with no effect”. The “effect of a mutation on the interaction” value [19] was “with no effect”, the “effect of a mutation on the interaction” value [20] was “with no effect” and the “effect of a mutation on the interaction” value [21] was “with no effect”. For the same substance, the “effect of a mutation on the interaction” value [22] was “with no effect”, the “effect of a mutation on the interaction” value [23] was “with no effect” and the “effect of a mutation on the interaction” value [24] was “disrupting interaction strength”. The “effect of a mutation on the interaction” value [25] was “with no effect”, the “effect of a mutation on the interaction” value [26] was “with no effect” and the “effect of a mutation on the interaction” value [27] was “disrupting interaction strength”. For the same substance, the “effect of a mutation on the interaction” value [30] was “with no effect”, the “effect of a mutation on the interaction” value [28] was “with no effect” and the “effect of a mutation on the interaction” value [29] was “disrupting interaction strength”.

“Bifunctional polynucleotide phosphatase/kinase (Homo sapiens), Q96T60 P20S” was tested, and the “effect of a mutation on the interaction” value [31] was “with no effect”, the “effect of a mutation on the interaction” value [32] was “with no effect” and the “effect of a mutation on the interaction” value [33] was “with no effect”. For the same substance, the “effect of a mutation on the interaction” value [34] was “with no effect”, the “effect of a mutation on the interaction” value [35] was “with no effect” and the “effect of a mutation on the interaction” value [36] was “with no effect”. For the same substance, the “effect of a mutation on the interaction” value [37] was “with no effect”, the “effect of a mutation on the interaction” value [38] was “with no effect” and the “effect of a mutation on the interaction” value [39] was “with no effect”. For the same substance, the “effect of a mutation on the interaction” value [40] was “with no effect”, the “effect of a mutation on the interaction” value [41] was “with no effect” and the “effect of a mutation on the interaction” value [42] was “with no effect”. For the same substance, the “effect of a mutation on the interaction” value [43] was “with no effect”, the “effect of a mutation on the interaction” value [44] was “with no effect” and the “effect of a mutation on the interaction” value [45] was “with no effect”. The “effect of a mutation on the interaction” value [46] was “with no effect”, the “effect of a mutation on the interaction” value [47] was “with no effect” and the “effect of a mutation on the interaction” value [48] was “with no effect”. For the same substance, the “effect of a mutation on the interaction” value [49] was “with no effect”, the “effect of a mutation on the interaction” value [50] was “with no effect” and the “effect of a mutation on the interaction” value [51] was “with no effect”. For the same substance, the “effect of a mutation on the interaction” value [52] was “with no effect”, the “effect of a mutation on the interaction” value [53] was “with no effect” and the “effect of a mutation on the interaction” value [54] was “with no effect”. For the same substance, the “effect of a mutation on the interaction” value [55] was “with no effect”, the “effect of a mutation on the interaction” value [56] was “with no effect” and the “effect of a mutation on the interaction” value [57] was “with no effect”. For the same substance, the “effect of a mutation on the interaction” value [58] was “with no effect”, the “effect of a mutation on the interaction” value [59] was “with no effect” and the “effect of a mutation on the interaction” value [60] was “with no effect”. The “effect of a mutation on the interaction” value [61] was “with no effect”, the “effect of a mutation on the interaction” value [62] was “with no effect” and the “effect of a mutation on the interaction” value [63] was “with no effect”.

Source: IntAct's records for PubMed 32296183
